The source of these data is US8993248B2, “Truncated human vitamin D binding protein and mutation and fusion thereof and related materials and methods of use” (Abbott Laboratories, priority 2011, dated 2015).

For series [1], the target named is T1, yeast surface displayed hDBP3 (Homo sapiens, UniProt P02774).
T1 construct: made in house; host or cells: yeast (surface display, pYD vector)
T1 sequence (P02774 17-227): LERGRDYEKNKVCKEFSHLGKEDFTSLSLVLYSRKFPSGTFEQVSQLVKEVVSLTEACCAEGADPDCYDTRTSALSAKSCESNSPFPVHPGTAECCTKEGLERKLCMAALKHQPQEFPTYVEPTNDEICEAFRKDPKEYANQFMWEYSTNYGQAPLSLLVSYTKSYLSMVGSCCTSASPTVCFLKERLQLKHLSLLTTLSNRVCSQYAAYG
As to the kind of experiment: Inhibition assay of free vitamin Ds on yeast surface displayed hDBP3. Format: binding. The conditions noted are these: for Ki: free vitamin D as inhibitor, yeast surface displayed hDBP3. As for the experimental part:
Binding affinity of the hDBP3 truncate to vitamin D2, vitamin D3, 25-hydroxy vitamin D2, and 25-hydroxy vitamin D3 was determined.

Series [2] has as its target T2, hDBP4-hFc 3-6 protein coated on microparticles (Homo sapiens, UniProt P02774, S92A/S95A).
T2 construct: made in house
As to the kind of experiment: Effect of displacement agent on microparticle DBP assay on the Abbott ARCHITECT instrument. The conditions noted are these: ANSA-present versus ANSA-free; FIG. 16. Format: binding. As for the experimental part:
For this study hDBP4-hFc 3-6 protein was coated on microparticles and binding was assessed on the Abbott ARCHITECT instrument to study the effect of adding a non-competitive displacement agent comprising 8-anilino-1-napthalenesulfonic acid ammonium salt (ANSA). ANSA separates any vitamin D metabolite in the sample from vitamin D binding protein to which the vitamin D metabolite is bound, was investigated. Microparticle diluent was used to remove ANSA in one condition (ANSA-free) but not the other (ANSA-present).

Series [3] is described as follows: Reactivity of hDBP-hFc fusion proteins to 25-hydroxy vitamin D3-3-biotin (ELISA). It is filed as binding. The following applies: fusion protein produced as a dimer by HEK 293F transient transfection. The source says: The hDBP3 open reading frame (ORF) was amplified by PCR and linked to hFc, which contained a short hinge region with the first six amino acids deleted (to increase secretion), through SOEing (splicing by overlapping extension) PCR. The fusion protein ORF was cloned in pBOS vector (acquired from Abbott Bioresearch Center, Worcester, Mass.) through Nru I/Not I restriction digestion. Secretion of the fusion protein was directed by IgG heavy chain secretion signal peptide. The fusion protein was produced as a dimer by human embryonic kidney (HEK) 293F transient transfection. However, its reactivity to 25-hydroxy vitamin D3-3-biotin was weak.
The hDBP4 ORF was amplified from the pYD vector and linked to hFc through SOEing PCR. The fusion protein ORF was cloned in pBOS vector through Nru I/Not I restriction digestion. Secretion of the fusion protein was directed by IgG heavy chain secretion signal peptide. The fusion protein was produced as a dimer by HEK 293F transient transfection. Its reactivity to 25-hydroxy vitamin D3-3-biotin was confirmed by ELISA.
The hDBP3 mutant 3-6 was amplified from a pYD vector. The hFc with 56 amino acids from hDBP4 on its N-terminus was amplified from pBOS hDBP4-hFc. The two fragments were linked together through SOEing PCR. The resulting DNA vector was named pBOS hDBP4-hFc 3-6, which contained the two point mutations (S76A, S79A). […]

Series [4] is described as follows: Storage stability of the protein by SDS-PAGE. Format: physicochemical. The conditions noted are these: protein expressed from HEK293 cells; room temperature, 2-8° C. and 37° C.; day 0, 3, 5, 7. As for the experimental part: The hDBP4-hFc 3-6 protein expressed from HEK293 cells was tested for stability. hDBP4-hFc 3-6 protein (about 100 μl of 0.5 mg/ml) was stored at room temperature, 2-8° C., and 37° C. A sample of about 20 μl of hDBP4-hFc 3-6 was taken at day 0, 3, 5, and 7, mixed with 20 μl reduced 2× Laemmli sample buffer, and stored at 2-8° C. until SDS-PAGE gel analysis.

Series [5] in a line: Ligand titration of yeast surface displayed hDBP truncates. It is filed as binding, human. The following applies: for Binding to the ligand 25-hydroxy vitamin D3-3-biotin, in words: compared to full-length hDBP; for EC50: yeast surface displayed hDBP GC1S constructs, ligand 25-OH vitamin D3-3-biotin, read-out: Ag50 (antigen concentration at 50% of maximal binding signal). As for the experimental part: A total of five hDBP truncates and the full-length hDBP (Table I) were cloned into pYD yeast display vector (Invitrogen) by polymerase chain reaction (PCR) and Nco I/Xho I restriction digestion.
Binding affinity to 25-hydroxy vitamin D3-3-biotin of each construct was measured by ligand titration (Table II). The Ag50 is the value (antigen concentration) generated at 50% of maximal binding signal, thus translating into the highest affinity. This testing was performed similar to that detailed in Friguet et al., J. Immunolog. Methods, 77:305-319 (1985).

Series [6] in a line: Screen of the yeast-displayed hDBP3 mutation library (MACS/FACS, equilibrium competition staining). It is filed as binding, human. The conditions noted are these: relative to yeast surface-displayed hDBP3. The source says: The library was screened by one round of Magnetic Activated Cell Sorting (MACS) and two rounds of Fluorescence Activated Cell Sorting (FACS) with equilibrium competition staining. […] Mutant 3-6 contained two point mutations (S76A, S79A). Plasmid DNA of this clone was isolated.

Series [7] addresses G-actin. The conditions noted are these: read-out: Binding affinity for G-actin; cited from earlier work.

Changes are numbered by the printed parent chain. In names and notes the source's numbering stands.

T2 sequence (P02774 with tags, fused parts or gaps S92A/S95A): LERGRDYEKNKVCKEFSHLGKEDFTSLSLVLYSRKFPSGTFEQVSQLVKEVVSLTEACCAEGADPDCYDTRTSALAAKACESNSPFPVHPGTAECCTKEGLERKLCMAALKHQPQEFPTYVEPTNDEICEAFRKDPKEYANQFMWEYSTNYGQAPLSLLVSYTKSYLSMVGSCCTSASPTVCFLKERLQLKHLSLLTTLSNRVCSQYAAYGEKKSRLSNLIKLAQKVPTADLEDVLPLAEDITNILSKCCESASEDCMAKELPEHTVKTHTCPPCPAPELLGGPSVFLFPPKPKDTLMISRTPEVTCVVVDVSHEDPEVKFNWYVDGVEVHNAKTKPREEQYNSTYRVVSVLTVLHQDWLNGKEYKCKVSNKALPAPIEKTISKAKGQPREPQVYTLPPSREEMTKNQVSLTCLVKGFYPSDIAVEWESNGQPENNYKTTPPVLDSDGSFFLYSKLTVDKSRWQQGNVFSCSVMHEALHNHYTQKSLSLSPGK

Consider `C=C1CC[C@H](O)C/C1=C/C=C1\CCC[C@]2(C)[C@@H]([C@H](C)/C=C/[C@H](C)C(C)(C)O)CC[C@@H]12` [25-hydroxy Vitamin D2], for which, in series [1], the affinity, expressed as Ki, was 6.4 nM.
Still for that read-out and setting: the result for `C=C1CC[C@H](O)C/C1=C/C=C1\CCC[C@]2(C)[C@@H]([C@H](C)CCCC(C)(C)O)CC[C@@H]12` [25-hydroxy Vitamin D3] reads 3.8 nM.
Consider `N.O=S(=O)(O)c1cccc2cccc(Nc3ccccc3)c12` [ANSA, 8-anilino-1-napthalenesulfonic acid ammonium salt], for which the “Effect on binding of vitamin D and tracer to DBP on the solid phase” value in series [2] was “disturbed the binding of vitamin D from the sample and tracer to the DBP on the solid phase”.
With `C=C1CC[C@H](O)C/C1=C/C=C1\CCC[C@]2(C)[C@@H]([C@H](C)/C=C/[C@H](C)C(C)C)CC[C@@H]12` [Vitamin D2], the Ki (as a rule, a measure of affinity in units of concentration, obtained from inhibition or displacement) in series [1] turned out to be 1390 nM.
Same read-out and setting: the value for `C=C1CC[C@H](O)C/C1=C/C=C1\CCC[C@]2(C)[C@@H]([C@H](C)CCCC(C)C)CC[C@@H]12` [Vitamin D3] was 2970 nM.
As to “hDBP4-hFc 3-6: hDBP3 mutant 3-6 (S76A, S79A) plus 56 amino acids of hDBP4 fused to hFc, SEQ ID NO:10; dimer”, in series [3], the “Reactivity to 25-hydroxy vitamin D3-3-biotin” value is recorded as “higher than wild-type fusion protein”. The “Degradation on storage (SDS-PAGE 4-20%)” value in series [4] is “no degradation”.

B1: hDBP3: hDBP truncate: domain I plus first α-helix of domain II (amino acids 1-211), SEQ ID NO:12 (protein, listed as Homo sapiens)
chain: T1 sequence (P02774 17-227)
As for B1, the “Binding preference among vitamin D2, vitamin D3, 25-hydroxy vitamin D2 and 25-hydroxy vitamin D3” value in series [1] is “preferentially bound to hydroxylated vitamin D213”. Moreover, in series [5], the “Binding to the ligand 25-hydroxy vitamin D3-3-biotin, in words” value was “bound to the ligand with similar affinity to the full-length hDBP” and the EC50 came out at 83 nM.

B2: 3-6: hDBP3 clone with two point mutations (S76A, S79A), SEQ ID NO:2 (protein, listed as Homo sapiens)
chain: T1 sequence (P02774 17-227) with S76A, S79A
Take B2: the “Increase in affinity to 25-hydroxy vitamin D3-3-biotin” value in series [6] is on record as “six-fold increase in affinity”.

B3: DBP: Naturally occurring triple-domain, monomeric serum glycoprotein that binds and transports vitamin D (protein, UniProt P02774 17-474, looked up)
Vitamin D-binding protein: LERGRDYEKNKVCKEFSHLGKEDFTSLSLVLYSRKFPSGTFEQVSQLVKEVVSLTEACCAEGADPDCYDTRTSALSAKSCESNSPFPVHPGTAECCTKEGLERKLCMAALKHQPQEFPTYVEPTNDEICEAFRKDPKEYANQFMWEYSTNYGQAPLSLLVSYTKSYLSMVGSCCTSASPTVCFLKERLQLKHLSLLTTLSNRVCSQYAAYGEKKSRLSNLIKLAQKVPTADLEDVLPLAEDITNILSKCCESASEDCMAKELPEHTVKLCDNLSTKNSKFEDCCQEKTAMDVFVCTYFMPAAQLPELPDVELPTNKDVCDPGNTKVMDKYTFELSRRTHLPEVFLSKVLEPTLKSLGECCDVEDSTTCFNAKGPLLKKELSSFIDKGQELCADYSENTFTEYKKKLAERLKAKLPDATPTELAKLVNKHSDFASNCCSINSPPLYCDSEIDAELKNIL
In the case of B3, the Kd in series [7] was roughly 10 nM.

B4: hDBP0 (Full-Length): Full-length human vitamin D binding protein, allele GC1S; domains I, II, III of 191, 187, 80 amino acids (protein, UniProt P02774 17-474, looked up)
Vitamin D-binding protein: B3 Vitamin D-binding protein
modifications: allele GC1S
notes: domains I, II, III of 191, 187, 80 amino acids
As for B4, in series [5], the EC50 worked out at 65 nM.

B5: hDBP4: hDBP truncate: domain I plus about half of domain II, 56 amino acids longer than hDBP3, SEQ ID NO:14 (protein, listed as Homo sapiens)
chain: LERGRDYEKNKVCKEFSHLGKEDFTSLSLVLYSRKFPSGTFEQVSQLVKEVVSLTEACCAEGADPDCYDTRTSALSAKSCESNSPFPVHPGTAECCTKEGLERKLCMAALKHQPQEFPTYVEPTNDEICEAFRKDPKEYANQFMWEYSTNYGQAPLSLLVSYTKSYLSMVGSCCTSASPTVCFLKERLQLKHLSLLTTLSNRVCSQYAAYGEKKSRLSNLIKLAQKVPTADLEDVLPLAEDITNILSKCCESASEDCMAKELPEHTV
For B5, in series [5], the “Binding to the ligand 25-hydroxy vitamin D3-3-biotin, in words” value is “retains binding affinity” and the EC50 is 95 nM.
